Test results taken from paper PMC2705212 (Journal of molecular biology, 2008).
One block for each molecule: values may come before it.

B1: BMPRII-Fc chimera (soluble extracellular domain of BMP receptor II) (Fc fusion, human, UniProt Q13873 27-150, looked up)
chain: SQNQERLCAFKDPYQQDLGIGESRISHENGTILCSKGSTCYGLWEKSKGDINLVKQGCWSHIGDPQECHYEECVVTTTPPSIQNGTYRFCCCSTDLCNVNFTENFPPPDTTPLSPPHSFNRDET
B2: BMP-7 growth factor dimer (ligand, human, UniProt P18075 293-431, looked up)
chain: STGSKQRSQNRSKTPKNQEALRMANVAENSSSDQRQACKKHELYVSFRDLGWQDWIIAPEGYAAYYCEGECAFPLNSYMNATNHAIVQTLVHFINPETVPKPCCAPTQLNAISVLYFDDSSNVILKKYRNMVVRACGCH

Tests used:
[1] = target: BMP-7 prodomain-growth factor complex (UniProt P18075); experiment: SPR
BMP-7 prodomain = experiment: SPR
[2] = target: BMPRII-Fc chimera (soluble extracellular domain of BMP receptor II) (human) (UniProt Q13873); experiment: SPR
[3] = target: ActRIIA-Fc chimera (soluble extracellular domain of activin receptor IIA) (human) (UniProt P27037); experiment: SPR
Chain of ActRIIA-Fc chimera (soluble extracellular domain of activin receptor IIA) (human) (P27037 20-135, change not shown): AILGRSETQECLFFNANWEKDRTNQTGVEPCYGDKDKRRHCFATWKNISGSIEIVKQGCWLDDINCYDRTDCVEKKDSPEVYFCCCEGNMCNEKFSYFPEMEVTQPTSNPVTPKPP

[4] = target: B2; experiment: SPR
[5] = target: B1; experiment: AUC

reduction of the response against immobilized BMP-7 gfd [1]: 90%
Molecule: ActRIIA-Fc chimera (soluble extracellular domain of activin receptor IIA) (from UniProt P27037 20-135) (Fc fusion)

koff (BMP-7 prodomain): 0.00209 s⁻¹
kon (BMP-7 prodomain): 98700 M⁻¹ s⁻¹
Molecule: BMP-7 growth factor dimer (from UniProt P18075 293-431) (ligand)

koff [2]: 0.00213 s⁻¹
kon [2]: 216000 M⁻¹ s⁻¹
koff [3]: 0.00352 s⁻¹
kon [3]: 265000 M⁻¹ s⁻¹
Molecule: BMP-7 prodomain-growth factor complex (from UniProt P18075 293-431)

Molecule: B1
reduction of the response against immobilized BMP-7 gfd [1]: 90%
koff [4]: 0.00298 s⁻¹
kon [4]: 625000 M⁻¹ s⁻¹

Molecule: B2
stoichiometry N [5]: 2 gfd per BMPRII-Fc dimer
